Assay results published in article PMC10766600 (2024).
Values joined by “and” are separate entries in the source; they are usually repeats but may differ in a detail not shown here. Equal entries are not always repeated.

B1: bacteriophage T5 capsid-like particles (T5 CLPs) (complex)
chain: AVNQSSSVEVSSESYETIFSQRIIRDLQKELVVGALFEELPMSSKILTMLVEPDAGKATWVAASTYGTDTTTGEEVKGALKEIHFSTYKLAAKSFITDETEEDAIFSLLPLLRKRLIEAHAVSIEEAFMTGDGSGKPKGLLTLASEDSAKVVTEAKADGSVLVTAKTISKLRRKLGRHGLKLSKLVLIVSMDAYYDLLEDEEWQDVAQVGNDSVKLQGQVGRIYGLPVVVSEYFPAKANSAEFAVIVYKDNFVMPRQRAVTVERERQAGKQRDAYYVTQRVNLQRYFANGVVSGTYAAS

Assays:
Assay in all cases: SPR
[1] = target: B1
[2] = target: pmC: full-length pb10 fused at its C-terminal end with mCherry (bacteriophage T5 | , UniProt Q6QGD6 1-164)
[3] = target: pNmC: N-terminal capsid-binding domain pN of pb10 fused at its C-terminal end with mCherry (bacteriophage T5 | , UniProt Q6QGD6 1-73)
[4] = target: pNO: N-terminal capsid-binding domain pN of pb10 fused at its C-terminal end with ovalbumin (bacteriophage T5 | , UniProt Q6QGD6 1-73)
[5] = target: pO: full-length pb10 fused at its C-terminal end with ovalbumin (bacteriophage T5 | , UniProt Q6QGD6 1-164)

| Binder | koff [1] | Kd [2] [pM] | koff [2] [s⁻¹] | Kd [3] [pM] | koff [3] [s⁻¹] | Kd [4] [pM] | koff [4] [s⁻¹] | Kd [5] [pM] | koff [5] [s⁻¹] |
| --- | --- | --- | --- | --- | --- | --- | --- | --- | --- |
| decoration protein pb10 of bacteriophage T5, full length (natural protein, DNA-free expanded capsid lacking pb10 (T5 dec deletion, stAmN5). Mature pb8 after removal of the scaffolding domain; limits from the UniProt chain feature, matching the 299 aa entity of PDB 6OMC/6OMA. Minor capsid components (portal) not included.) MIDYSGLRTIFGEKLPESHIFFATVAAHKYVPSYAFLRRELGLSSAHTNRKVWKKFVEAYGKAIPPAPPAPPLTLSKDLTASMSVEEGAALTLSVTATGGTGPYTYAWTKDGSPIPDASGATYTKPTAAAEDAGSYKVTVTDSKQVSKDSTTCAVTVNPTVPGG | 0.00019 s⁻¹ and 0.0003 s⁻¹ | – | – | – | – | – | – | – | – |
| B1 | – | 1.4 | 0.0002 | 0.9 | 0.00011 | 1.2 | 0.00023 | 2.3 | 0.00035 |
